Positions count from the first letter of the chain named.
Columns and labels:
[1] = biological target: human FGFR1c/KLB cell surface receptor complex on iLite FGF21 reporter cells (human, UniProt P11362 22-822; Q86Z14 1-1044); experiment: cell-based or functional assay; as to Mean E max (%): reference of the scale not given here
human beta-Klotho (KLB) = biological target: T1, human beta-Klotho (KLB) (human, UniProt Q86Z14 53-997); experiment: BLI off-rate screen (Octet), Ab captured via Fc;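 also: antibody supernatants applied at 25 µg/mL, dissociation monitored over 1800 s in D-PBS with 0.1% BSA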
T1 construct: also called human KLB
T1 sequence (looked up): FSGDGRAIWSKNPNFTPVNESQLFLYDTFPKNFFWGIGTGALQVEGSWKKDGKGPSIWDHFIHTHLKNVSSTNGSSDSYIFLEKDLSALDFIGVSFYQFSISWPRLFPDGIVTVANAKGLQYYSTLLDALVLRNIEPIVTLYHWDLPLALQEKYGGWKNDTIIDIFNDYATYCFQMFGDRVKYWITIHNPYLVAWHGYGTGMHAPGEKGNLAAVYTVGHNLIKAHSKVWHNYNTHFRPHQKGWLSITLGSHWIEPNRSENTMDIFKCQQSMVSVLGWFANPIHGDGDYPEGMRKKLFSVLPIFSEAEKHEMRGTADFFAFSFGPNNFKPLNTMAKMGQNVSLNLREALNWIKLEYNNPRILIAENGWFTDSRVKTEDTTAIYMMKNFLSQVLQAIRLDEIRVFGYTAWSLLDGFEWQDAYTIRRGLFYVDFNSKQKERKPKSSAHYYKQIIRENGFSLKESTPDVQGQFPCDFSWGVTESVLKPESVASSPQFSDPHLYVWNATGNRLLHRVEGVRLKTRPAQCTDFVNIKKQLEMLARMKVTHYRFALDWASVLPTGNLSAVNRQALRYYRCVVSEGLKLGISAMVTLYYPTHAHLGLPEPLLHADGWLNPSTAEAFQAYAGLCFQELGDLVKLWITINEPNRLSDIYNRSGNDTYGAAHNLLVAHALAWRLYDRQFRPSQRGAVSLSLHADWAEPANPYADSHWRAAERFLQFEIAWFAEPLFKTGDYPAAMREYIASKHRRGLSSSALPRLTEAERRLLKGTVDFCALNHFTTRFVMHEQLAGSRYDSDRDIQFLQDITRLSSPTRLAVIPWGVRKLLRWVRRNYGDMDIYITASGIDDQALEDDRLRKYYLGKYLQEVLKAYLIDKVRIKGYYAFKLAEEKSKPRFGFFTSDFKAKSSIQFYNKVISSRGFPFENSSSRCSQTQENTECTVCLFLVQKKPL

Sequence of human FGFR1c/KLB cell surface receptor complex on iLite FGF21 reporter cells (P11362 22-822, chain 1 of 2): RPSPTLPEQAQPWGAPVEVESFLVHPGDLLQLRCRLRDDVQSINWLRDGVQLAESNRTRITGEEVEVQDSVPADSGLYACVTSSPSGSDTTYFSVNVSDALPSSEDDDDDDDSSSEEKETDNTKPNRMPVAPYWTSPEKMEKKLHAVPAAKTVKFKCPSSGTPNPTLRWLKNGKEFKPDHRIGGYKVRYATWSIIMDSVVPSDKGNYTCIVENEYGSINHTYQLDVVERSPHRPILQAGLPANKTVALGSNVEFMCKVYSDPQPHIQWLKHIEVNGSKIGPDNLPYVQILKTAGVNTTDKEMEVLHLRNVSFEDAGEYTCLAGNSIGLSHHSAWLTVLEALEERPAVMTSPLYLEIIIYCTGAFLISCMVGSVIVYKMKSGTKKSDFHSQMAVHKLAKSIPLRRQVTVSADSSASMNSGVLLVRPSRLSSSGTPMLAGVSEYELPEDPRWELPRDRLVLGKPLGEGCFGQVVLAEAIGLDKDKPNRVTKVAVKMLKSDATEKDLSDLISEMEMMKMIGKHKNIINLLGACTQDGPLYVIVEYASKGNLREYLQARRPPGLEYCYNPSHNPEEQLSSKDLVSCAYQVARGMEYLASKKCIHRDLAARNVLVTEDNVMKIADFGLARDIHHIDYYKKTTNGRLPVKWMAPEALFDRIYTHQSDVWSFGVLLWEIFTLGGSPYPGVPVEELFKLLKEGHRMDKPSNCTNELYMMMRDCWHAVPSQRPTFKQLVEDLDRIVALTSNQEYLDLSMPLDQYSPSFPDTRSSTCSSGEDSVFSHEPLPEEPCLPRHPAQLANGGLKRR
Sequence of human FGFR1c/KLB cell surface receptor complex on iLite FGF21 reporter cells (Q86Z14 whole entry, chain 2 of 2): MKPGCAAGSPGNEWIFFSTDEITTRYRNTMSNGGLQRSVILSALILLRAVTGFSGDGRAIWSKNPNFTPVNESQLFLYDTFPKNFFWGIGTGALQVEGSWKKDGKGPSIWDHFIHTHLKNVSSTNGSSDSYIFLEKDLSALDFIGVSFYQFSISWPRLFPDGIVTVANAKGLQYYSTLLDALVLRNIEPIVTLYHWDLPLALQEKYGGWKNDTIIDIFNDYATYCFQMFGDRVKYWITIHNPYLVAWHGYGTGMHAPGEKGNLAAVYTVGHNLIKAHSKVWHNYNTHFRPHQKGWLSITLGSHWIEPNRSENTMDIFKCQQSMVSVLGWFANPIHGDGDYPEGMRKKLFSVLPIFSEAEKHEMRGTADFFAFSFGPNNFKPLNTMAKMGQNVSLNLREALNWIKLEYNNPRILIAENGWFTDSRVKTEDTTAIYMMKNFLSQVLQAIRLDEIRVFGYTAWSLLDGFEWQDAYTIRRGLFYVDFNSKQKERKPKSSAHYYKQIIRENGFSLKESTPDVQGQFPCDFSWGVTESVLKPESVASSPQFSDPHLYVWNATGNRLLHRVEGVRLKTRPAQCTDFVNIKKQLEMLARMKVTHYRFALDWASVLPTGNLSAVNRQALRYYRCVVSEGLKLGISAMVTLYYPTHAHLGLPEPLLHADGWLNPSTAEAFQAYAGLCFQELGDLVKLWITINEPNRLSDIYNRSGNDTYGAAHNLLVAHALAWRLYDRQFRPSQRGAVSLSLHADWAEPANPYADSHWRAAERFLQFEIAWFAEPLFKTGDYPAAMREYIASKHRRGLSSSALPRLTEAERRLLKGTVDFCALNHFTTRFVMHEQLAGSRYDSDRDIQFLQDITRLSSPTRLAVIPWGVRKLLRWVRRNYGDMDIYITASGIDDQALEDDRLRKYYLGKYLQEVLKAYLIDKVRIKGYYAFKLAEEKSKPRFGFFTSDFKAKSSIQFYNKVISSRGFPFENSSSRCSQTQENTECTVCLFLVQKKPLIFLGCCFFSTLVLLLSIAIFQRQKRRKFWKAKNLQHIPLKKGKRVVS

B1: 16H7 variant, light chain N25V (antibody, human IgG4 S228P, lambda, V domains shown)
VH: not shown
VL: SYVLTQPPSVSVAPGQTARITCGGVNIGSESVHWYQQKPGQAPVLVVYDDSDRPSGIPERFSGSNSGNTATLTISRVEAGDEADYYCQVWDGNSDHVVFGGGTKLTVLG
notes: IgG4 backbone
[1]
  Mean E max (%): 106%
  Mean EC50: 121 pM
Human beta-Klotho (KLB)
  koff: 3.2e-05 s⁻¹

B2: 16H7 variant, light chain N26H (antibody, human IgG4 S228P, lambda, V domains shown)
VH: not shown
VL: B1 VL with V25N, N26H
notes: IgG4 backbone
[1]
  Mean E max (%): 112%
  Mean EC50: 138 pM
Human beta-Klotho (KLB)
  koff: 3.5e-05 s⁻¹

B3: 16H7 variant, light chain P54N (antibody, human IgG4 S228P, lambda, V domains shown)
VH: not shown
VL: B1 VL with V25N, P54N
notes: IgG4 backbone
[1]
  Mean E max (%): 105%
  Mean EC50: 150 pM
Human beta-Klotho (KLB)
  koff: 0.00014 s⁻¹

B4: 16H7 variant, light chain P54H (antibody, human IgG4 S228P, lambda, V domains shown)
VH: not shown
VL: B1 VL with V25N, P54H
notes: IgG4 backbone
[1]
  Mean E max (%): 100%
  Mean EC50: 111 pM
Human beta-Klotho (KLB)
  koff: 0.00014 s⁻¹

B5: 16H7 variant, light chain N26R (antibody, human IgG4 S228P, lambda, V domains shown)
VH: not shown
VL: B1 VL with V25N, N26R
notes: IgG4 backbone
[1]
  Mean E max (%): 110%
  Mean EC50: 205 pM
Human beta-Klotho (KLB)
  koff: 2.5e-05 s⁻¹

B6: 16H7 variant, light chain N26K (antibody, human IgG4 S228P, lambda, V domains shown)
VH: not shown
VL: B1 VL with V25N, N26K
notes: IgG4 backbone
[1]
  Mean E max (%): 104%
  Mean EC50: 143 pM
Human beta-Klotho (KLB)
  koff: 1e-07 s⁻¹

B7: 16H7 variant, light chain N26L (antibody, human IgG4 S228P, lambda, V domains shown)
VH: not shown
VL: B1 VL with V25N, N26L
notes: IgG4 backbone
[1]
  Mean E max (%): 103%
  Mean EC50: 131 pM
Human beta-Klotho (KLB)
  koff: 4.4e-05 s⁻¹

B8: 16H7 variant, light chain P54S (antibody, human IgG4 S228P, lambda, V domains shown)
VH: not shown
VL: B1 VL with V25N, P54S
notes: IgG4 backbone
[1]
  Mean E max (%): 102%
  Mean EC50: 103 pM
Human beta-Klotho (KLB)
  koff: 7.9e-05 s⁻¹

B9: 16H7 variant, light chain N26D (antibody, IgG4, V domains shown)
VH: not shown
VL: B1 VL with V25N, N26D
notes: IgG4 backbone; copies: 2 + 2
[1]
  Mean E max (%): 101%
  Mean EC50: 123 pM
Human beta-Klotho (KLB)
  koff: 5.6e-05 s⁻¹

B10: 16H7 variant, light chain N26S (antibody, IgG4, V domains shown)
VH: not shown
VL: B1 VL with V25N, N26S
notes: IgG4 backbone; copies: 2 + 2
[1]
  Mean E max (%): 101%
  Mean EC50: 118 pM
Human beta-Klotho (KLB)
  koff: 1e-07 s⁻¹

B11: 16H7 variant, light chain N26I (antibody, IgG4, V domains shown)
VH: not shown
VL: B1 VL with V25N, N26I
notes: IgG4 backbone; copies: 2 + 2
[1]
  Mean E max (%): 110%
  Mean EC50: 113 pM
Human beta-Klotho (KLB)
  koff: 6.3e-05 s⁻¹

B12: 16H7 variant, light chain P54I (antibody, human IgG4 S228P, lambda, V domains shown)
VH: not shown
VL: B1 VL with V25N, P54I
notes: IgG4 backbone
[1]
  Mean E max (%): 112%
  Mean EC50: 115 pM
Human beta-Klotho (KLB)
  koff: 3.5e-05 s⁻¹

B13: 16H7 variant, light chain N26Q (antibody, IgG4, V domains shown)
VH: not shown
VL: B1 VL with V25N, N26Q
notes: IgG4 backbone; copies: 2 + 2
[1]
  Mean E max (%): 109%
  Mean EC50: 119 pM
Human beta-Klotho (KLB)
  koff: 1e-07 s⁻¹

B14: 16H7 variant, light chain N26A (antibody, human IgG4 S228P, lambda, V domains shown)
VH: not shown
VL: B1 VL with V25N, N26A
notes: IgG4 backbone
[1]
  Mean E max (%): 98%
  Mean EC50: 106 pM
Human beta-Klotho (KLB)
  koff: 4.6e-06 s⁻¹

B15: 16H7 variant, light chain N26E (antibody, human IgG4 S228P, lambda, V domains shown)
VH: not shown
VL: B1 VL with V25N, N26E
notes: IgG4 backbone
[1]
  Mean E max (%): 106%
  Mean EC50: 106 pM
Human beta-Klotho (KLB)
  koff: 7.2e-05 s⁻¹

B16: 16H7 variant, light chain N26C (antibody, IgG4, V domains shown)
VH: not shown
VL: B1 VL with V25N, N26C
notes: IgG4 backbone; copies: 2 + 2
[1]
  Mean E max (%): 103%
  Mean EC50: 146 pM
Human beta-Klotho (KLB)
  koff: 1e-07 s⁻¹

B17: 16H7 variant, light chain N26V (antibody, human IgG4 S228P, lambda, V domains shown)
VH: not shown
VL: B1 VL with V25N, N26V
notes: IgG4 backbone
[1]
  Mean E max (%): 106%
  Mean EC50: 118 pM
Human beta-Klotho (KLB)
  koff: 3.5e-05 s⁻¹

B18: 16H7 variant, light chain N26Y (antibody, human IgG4 S228P, lambda, V domains shown)
VH: not shown
VL: B1 VL with V25N, N26Y
notes: IgG4 backbone
[1]
  Mean E max (%): 110%
  Mean EC50: 124 pM
Human beta-Klotho (KLB)
  koff: 3.7e-05 s⁻¹

B19: 16H7 variant, light chain P54M (antibody, human IgG4 S228P, lambda, V domains shown)
VH: not shown
VL: B1 VL with V25N, P54M
notes: IgG4 backbone
[1]
  Mean E max (%): 98%
  Mean EC50: 87 pM
Human beta-Klotho (KLB)
  koff: 3.2e-05 s⁻¹

B20: 16H7 variant, light chain N25W (antibody, human IgG4 S228P, lambda, V domains shown)
VH: not shown
VL: B1 VL with V25W
notes: IgG4 backbone
[1]
  Mean E max (%): 99%
  Mean EC50: 99 pM
Human beta-Klotho (KLB)
  koff: 1e-07 s⁻¹

B21: 16H7 variant, light chain P54R (antibody, human IgG4 S228P, lambda, V domains shown)
VH: not shown
VL: B1 VL with V25N, P54R
notes: IgG4 backbone
[1]
  Mean E max (%): 104%
  Mean EC50: 111 pM
Human beta-Klotho (KLB)
  koff: 0.00011 s⁻¹

B22: 16H7 variant, light chain P54G (antibody, human IgG4 S228P, lambda, V domains shown)
VH: not shown
VL: B1 VL with V25N, P54G
notes: IgG4 backbone
[1]
  Mean E max (%): 114%
  Mean EC50: 141 pM
Human beta-Klotho (KLB)
  koff: 5.1e-05 s⁻¹

B23: 16H7 variant, light chain N25Y (antibody, human IgG4 S228P, lambda, V domains shown)
VH: not shown
VL: B1 VL with V25Y
notes: IgG4 backbone
[1]
  Mean E max (%): 104%
  Mean EC50: 99 pM
Human beta-Klotho (KLB)
  koff: 3.1e-05 s⁻¹

B24: 16H7 variant, light chain P54K (antibody, human IgG4 S228P, lambda, V domains shown)
VH: not shown
VL: B1 VL with V25N, P54K
notes: IgG4 backbone
[1]
  Mean E max (%): 100%
  Mean EC50: 131 pM
Human beta-Klotho (KLB)
  koff: 0.00016 s⁻¹

B25: 16H7 variant, light chain N26F (antibody, human IgG4 S228P, lambda, V domains shown)
VH: not shown
VL: B1 VL with V25N, N26F
notes: IgG4 backbone
[1]
  Mean E max (%): 95%
  Mean EC50: 158 pM
Human beta-Klotho (KLB)
  koff: 5.4e-05 s⁻¹

B26: 16H7 variant, light chain N26W (antibody, IgG4, V domains shown)
VH: not shown
VL: B1 VL with V25N, N26W
notes: IgG4 backbone; copies: 2 + 2
[1]
  Mean E max (%): 105%
  Mean EC50: 129 pM
Human beta-Klotho (KLB)
  koff: 6.7e-05 s⁻¹

B27: 16H7 variant, light chain P54D (antibody, human IgG4 S228P, lambda, V domains shown)
VH: not shown
VL: B1 VL with V25N, P54D
notes: IgG4 backbone
[1]
  Mean E max (%): 96%
  Mean EC50: 115 pM
Human beta-Klotho (KLB)
  koff: 0.00028 s⁻¹

B28: 16H7 variant, light chain P54L (antibody, human IgG4 S228P, lambda, V domains shown)
VH: not shown
VL: B1 VL with V25N, P54L
notes: IgG4 backbone
[1]
  Mean E max (%): 108%
  Mean EC50: 133 pM
Human beta-Klotho (KLB)
  koff: 9.6e-05 s⁻¹

B29: 16H7 variant, light chain N26M (antibody, human IgG4 S228P, lambda, V domains shown)
VH: not shown
VL: B1 VL with V25N, N26M
notes: IgG4 backbone
[1]
  Mean E max (%): 111%
  Mean EC50: 153 pM
Human beta-Klotho (KLB)
  koff: 2.2e-05 s⁻¹

B30: 16H7 variant, light chain P54C (antibody, human IgG4 S228P, lambda, V domains shown)
VH: not shown
VL: B1 VL with V25N, P54C
notes: IgG4 backbone
[1]
  Mean E max (%): 100%
  Mean EC50: 116 pM
Human beta-Klotho (KLB)
  koff: 0.00012 s⁻¹

B31: 16H7 variant, light chain N26G (antibody, human IgG4 S228P, lambda, V domains shown)
VH: not shown
VL: B1 VL with V25N, N26G
notes: IgG4 backbone
[1]
  Mean E max (%): 94%
  Mean EC50: 97 pM
Human beta-Klotho (KLB)
  koff: 3.7e-05 s⁻¹

B32: 16H7 variant, light chain P54F (antibody, human IgG4 S228P, lambda, V domains shown)
VH: not shown
VL: B1 VL with V25N, P54F
notes: IgG4 backbone
[1]
  Mean E max (%): 105%
  Mean EC50: 143 pM
Human beta-Klotho (KLB)
  koff: 0.00012 s⁻¹

B33: 16H7 variant, light chain N26P (antibody, human IgG4 S228P, lambda, V domains shown)
VH: not shown
VL: B1 VL with V25N, N26P
notes: IgG4 backbone
[1]
  Mean E max (%): 100%
  Mean EC50: 99 pM
Human beta-Klotho (KLB)
  koff: 5.1e-05 s⁻¹
